From the supplement of paper PMC9170038

System: MS2 coat protein
Test: apparent KD of MS2 coat protein; designed switch direction (-1 OFF switch, 1 ON switch): -1; higher = weaker reporter binding
Outline: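 SNAP-549-labelled MS2 coat protein was titrated, doubling from 0.7 or 1.5 nM to 3 µM, over designed RNA switches transcribed on Illumina chips by stalled E. coli RNA polymerase. Runs were done without input, with 200 uM small-molecule ligand, or with an oligonucleotide input. Apparent KD is the per-design median over clusters of curve-fitted normalised fluorescence.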

[1] = input ligand: microRNA oligo, concentration not stated
[2] = Eterna round: R95, input ligand: microRNA oligo, concentration not stated
[3] = Eterna round: R95, input ligand: FMN 200 uM
[4] = Eterna round: R95, input ligand: none

Sequence	apparent KD of MS2 coat protein (input ligand: FMN 200 uM)	apparent KD of MS2 coat protein (input ligand: none)	apparent KD of MS2 coat protein [1]	apparent KD of MS2 coat protein [2]	apparent KD of MS2 coat protein [3]	apparent KD of MS2 coat protein [4]
CAGCUGAAUGUGAGGAUAUGUCGAGCGAUAGCUCGAUAGAAGGCACAUGAGGAUCACCCAUGUCUCAACAGCUG [BmEx4/2-C4] (Eterna round: R97, puzzle: Brourd's mod of Exclusion 4)	0.349 µM	0.0283 µM	–	–	–	–
CAGCUGAAUGUGAGGAUAUGUCUAGCUGCGGCUAGACAGAAGGCACAUGAGGAUCACCCAUGUCUCAACAGCUG [BmEx4/2-D3] (Eterna round: R97, puzzle: Brourd's mod of Exclusion 4)	0.414 µM	0.0355 µM	–	–	–	–
CAGCUGUCAGGAUAUCGUGCAUACAACGAAAGUUCUAUGUGCGAGAAGGGACAUGAGGAUCACCCAUGUAAACG [Omei Ex4 A26] (Eterna round: R97, puzzle: Exclusion 4)	0.101 µM	0.0574 µM	–	–	–	–
CAGCUGUCAGGAUAUCGUGCAUACAACGAAAGUUCUAUGUGCGAGAAGGGACAUGAGGAUCACCCAUGUUUCCG [Omei Ex4 A23] (Eterna round: R97, puzzle: Exclusion 4)	0.0211 µM	0.0161 µM	–	–	–	–
CAGUACUGAGGAUAUACAUGAGGAUCACCCAUGUAAUAAGGUUAGGAAACUAACCUAUGUAGAAGGCAGUACUG [Eli x3 4.07] (Eterna round: R97, puzzle: Exclusion 3)	0.0132 µM	0.0147 µM	–	–	–	–
CAGUACUGAGGAUAUACAUGAGGAUCACCCAUGUGAUCUAGUGCACGCGUACGUGUACGUAGAAGGCAGUACUG [JL 3.27 m3] (Eterna round: R97, puzzle: Exclusion 3)	0.562 µM	0.0468 µM	–	–	–	–
CAGUACUGAGGAUAUACAUGAGGAUCACCCAUGUGAUUUGGUGCACGCGUACGUGUACGUAGAAGGCAGUACUG [JL 3.27 m5] (Eterna round: R97, puzzle: Exclusion 3)	0.363 µM	0.0242 µM	–	–	–	–
CAGUACUGAGGAUAUACAUGAGGAUCACCCAUGUGUUCCAGCUAGGAAUCUAGCAAAAGUAGAAGGCAGUACUG [salish99_ex3_r3_094x] (Eterna round: R96, puzzle: Exclusion 3)	0.727 µM	0.0251 µM	0.0224 µM	–	–	–
CAGUACUGAGGAUAUACAUGAGGAUCACCCAUGUGUUCCAGCUAGGAAUCUAGCAAAAGUAGAAGGCAGUACUG [salish99_ex3_r3_094x] (puzzle: Exclusion 3)	–	–	–	0.0253 µM	–	–
CAGUACUGAGGAUAUACAUGAGGAUCACCCAUGUGUUCCAGCUAGGUAACUAGCAAAAGUAGAAGGCAGUACUG [salish99_ex3_r3_096x] (puzzle: Exclusion 3)	–	–	–	0.0257 µM	–	–
CAGUACUGAGGAUAUACAUGAGGAUCACCCAUGUGUUCCUGCUAGGAAACUAGCAAAAGUAGAAGGCAGUACUG [salish99_ex3_r3_098x] (Eterna round: R96, puzzle: Exclusion 3)	0.516 µM	0.0275 µM	0.0261 µM	–	–	–
CAGUACUGAGGAUAUACAUGAGGAUCACCCAUGUGUUCCUGCUAGGAAACUAGCAAAAGUAGAAGGCAGUACUG [salish99_ex3_r3_098x] (puzzle: Exclusion 3)	–	–	–	0.0285 µM	–	–
CAGUACUGAGGAUAUACAUGAGGAUCACCCAUGUGUUCCUGCUAGGAAACUAGCAAGGGUAGAAGGCAGUACUG [Salish 065 m4] (Eterna round: R97, puzzle: Exclusion 3)	0.132 µM	0.0164 µM	–	–	–	–
CAGUCCGUUUGAGGAUAUCUCUGGAUCGCCAUGAGAGAAGGCAAACAUGAGGAUCACCCAUGUGGUACCGACUCAACGUCGACA [Eternabot solution 10] (Eterna round: R96, puzzle: Exclusion NG 1)	0.0207 µM	0.016 µM	0.0116 µM	–	–	–
CAUCCACAUGAGGAUCACCCAUGUGAGGAUAUGAUACUAUGUACUUCGGUACAUAGUAUCAGAAGGCACAGGUG [Ex1-3: 59] (puzzle: Exclusion 1)	–	–	–	0.111 µM	–	–
CAUCCUAUUGUAGGAUAUCCGCUUAUUAUAUUGGGAGAAGGACAUGAGGAUCACCCAUGUGUGUAAUCAGAUGUGCGUGUUAAC [an other try] (Eterna round: R96, puzzle: Exclusion NG 1)	0.173 µM	0.0822 µM	0.0661 µM	–	–	–

Sequence	apparent KD of MS2 coat protein (input ligand: FMN 200 uM)	apparent KD of MS2 coat protein (input ligand: none)	apparent KD of MS2 coat protein [1]	apparent KD of MS2 coat protein [2]	apparent KD of MS2 coat protein [3]	apparent KD of MS2 coat protein [4]
CAUGAUCUUCGGAUCAUGGACAUGAGGAUCACCCAUGUCACGAGCAGAUCCUCAUGCAAGCUUUUUGCUCGUCUUAU [Sensor v3 - Turn-off variant 1 - 35] (puzzle: Sensor v3, turn-off variant 1)	–	–	–	0.00873 µM	0.0629 µM	0.0852 µM
CAUGAUCUUCGGAUCAUGUACAUGAGGAUCACCCAUGUGACGAGUAGAUCCUCAAACAAGCUUUUUGCUCGUCUUAU [Sensor v3 - Turn-off variant 1 - 19] (puzzle: Sensor v3, turn-off variant 1)	–	–	–	0.0121 µM	0.0507 µM	0.0645 µM
CAUGAUUGGCGAGGAUAUUGUUCUACAUGGCGACGAGAAGGCGCCUGUCACAUGAGGAUCACCCAUGUGAGUCUGGUGAAUGAG [Ex NG1 #84] (Eterna round: R96, puzzle: Exclusion NG 1)	0.027 µM	0.0222 µM	0.0166 µM	–	–	–
CAUGAUUGGGAAGGAUAUUGACCUAGUUAGCGACGAGAAGGUCCCUGUCACAUGAGGAUCACCCAUGUGAAUCUGGUGAAAGAG [Ex NG1 #100] (Eterna round: R96, puzzle: Exclusion NG 1)	0.0298 µM	0.0242 µM	0.0204 µM	–	–	–
CAUGCACAUGAGGAUCACCCAUGUGAGGAUAUUUAGCGUCAGUAAUCAAUAGACAGCAGAAGAAGGCACCUGGU [Eternabot (L2) Solution 73] (Eterna round: R97, puzzle: Exclusion 1)	0.035 µM	0.0294 µM	–	–	–	–
CAUGCUUCGGCAUGUACAAGCUUUUUGCUCGUCUUAUUAACAUGAGGAUCACCCAUGUACAAGAGACCUCAUGUAUU [Sensor v3 - turn-off variant 2 - 11] (puzzle: Sensor v3, turn-off variant 2)	–	–	–	0.0229 µM	0.293 µM	0.338 µM
CAUUAUGUUGAGGAUAUGCGCCGGAAAACUGACGCAGAAGGCGACACAUGAGGAUCACCCAUGUCAGUUCGCGA [salish99_ex6_r004_424] (Eterna round: R97, puzzle: Exclusion 6)	0.0106 µM	0.0106 µM	–	–	–	–
CAUUAUUAUCGAGGAUAUCCUAUUGUAAUUCUGGGAGAAGGCGGACUCAACAUGAGGAUCACCCAUGUAAGACGGGUGCUAGAG [Ex NG1 #24] (Eterna round: R96, puzzle: Exclusion NG 1)	0.306 µM	0.276 µM	0.236 µM	–	–	–
CAUUUGUAAGGAUAUGCACCGAUCUCCGAAAGGAGAUCGGUGCAGAAGGUACAUGAGGAUCACCCAUGUUGAUG [Mod of Brourd 11 - Jieux - Exclusion 4] (Eterna round: R97, puzzle: Exclusion 4)	0.218 µM	0.0336 µM	–	–	–	–
CCAACUAAUUAGGAUAUUAAGGACAUCAGUAAGUAAGAAGGGAUUACAUGAGGAUCACCCAUGUGGUCCUCGGG [Eternabot (L2) Solution 57] (Eterna round: R97, puzzle: Exclusion 6)	0.226 µM	0.147 µM	–	–	–	–
CCAAGCUUAUUCAUUAACCACAUGAGGAUCACCCAUGUAUAGGCAAUUAUGACUGGGCAAUGUGGUGCUCGUCUUAU [Sensor-V1 #28] (Eterna round: R97, puzzle: Sensor, turn-off variant 1)	0.0395 µM	0.0413 µM	–	–	–	–
CCAGCGGACAAAGGAUAUUGCGGUGACCGGCUCGGCGUACCGAGCCUACAUGAGGAUCACCCAUGUAAGAAGGUUGUCGUAGGA [Mat - Exclusion NG 2 - Mod of JL - D73] (Eterna round: R96, puzzle: Exclusion NG 2)	0.0561 µM	0.0195 µM	0.0132 µM	–	–	–
CCAGCGUAUGUGAGGAUAUGCUGGUCCUUGGAUCAGCAGAAGGCACAUGAGGAUCACCCAUGUGAGAGCGUUGG [JL bmx4 3.37] (Eterna round: R96, puzzle: Brourd's mod of Exclusion 4)	0.187 µM	0.0304 µM	0.0256 µM	–	–	–
CCAGCGUAUGUGAGGAUAUGCUGGUCCUUGGAUCAGCAGAAGGCACAUGAGGAUCACCCAUGUGAGAGCGUUGG [JL bmx4 3.37] (puzzle: Brourd's mod of Exclusion 4)	–	–	–	0.0214 µM	–	–
CCAGGAAGGCAGGAUAUCCAAAGCCGUCCCGGCGGAGAAGGGCUGACUUGAGGAUCACCCAAGUGAUGCCUAAC [Aratquve] (Eterna round: R97, puzzle: Exclusion 6)	0.0152 µM	0.0148 µM	–	–	–	–
